The record followed here is PMC10509167, “Identification and characterization of endo-α-, exo-α-, and exo-β-D-arabinofuranosidases degrading lipoarabinomannan and arabinogalactan of mycobacteria” (Nature Communications, 2023).

Usually stoichiometry N stands for a count of units in the complex or per binding partner.

Assay [1] deals with EndoMA1 (MIAR_33230), GH183 (DUF4185) endo-D-arabinanase from Microbacterium arabinogalactanolyticum, recombinant wild type (Microbacterium arabinogalactanolyticum JCM 9171). Nature of the assay: SEC-MALS; SEC-MALS/RI of EndoMA1, KW403-4F column (Shodex), DAWN HELEOS II; self-association in solution. On the technique in general: SEC sorts molecules by how far they enter the pores of the column.

Assay [2] has the same target. As to the kind of experiment: SEC-SAXS; SEC-SAXS of EndoMA1 at beamline BL-10C of the Photon Factory, same column and buffer as SEC-MALS/RI; profile compared with the dimeric apo crystal structure.
Assay [3] shares this target. As to the kind of experiment: crystal structure; EndoMA1 wild type, apo form, 1.60 Å; sitting-drop vapor diffusion, 20 °C.
For assay [4], the target named is ExoMA1 (MIAR_33200), GH172 exo-α-D-arabinofuranosidase from Microbacterium arabinogalactanolyticum, recombinant (Microbacterium arabinogalactanolyticum JCM 9171). Nature of the assay: crystal structure; ExoMA1 apo form, 2.42 Å; dodecamer in the asymmetric unit; sitting-drop vapor diffusion, 20 °C.
Assay [5] has the same target. As to the kind of experiment: SEC; SEC of ExoMA1 in solution (Supplementary Fig. 19a).
Assay [6] has the same target. As to the kind of experiment: negative-stain transmission electron microscopy; purified ExoMA1 0.1 mg/mL in 10 mM Tris-HCl (pH 7.5), 500 mM NaCl, on carbon-coated copper grids, 2% uranyl acetate, 120 kV.
For assay [7], the target named is EndoMA1 D51N catalytic residue mutant (Microbacterium arabinogalactanolyticum JCM 9171). Nature of the assay: crystal structure; EndoMA1 D51N co-crystallised with 10 mM A9LT, 1.80 Å; microseeding, 30 °C; four chains (A-D) in the asymmetric unit.

Take “EndoMA1 (MIAR_33230), GH183 (DUF4185) endo-D-arabinanase from Microbacterium arabinogalactanolyticum, recombinant wild type (enzyme)”: the stoichiometry N in assay [1], in assay [2] and in assay [3] was 2 throughout.
Regarding “ExoMA1 (MIAR_33200), GH172 exo-α-D-arabinofuranosidase from Microbacterium arabinogalactanolyticum, recombinant (enzyme)”, the stoichiometry N in assay [4] was 12; in assay [5], greater than 7; in assay [6], 12.
On to “EndoMA1 D51N catalytic residue mutant (enzyme)”, for which, in assay [7], the stoichiometry N came to 2.
